The source of these data is US20180064808A1 (Hoffmann-La Roche, published 2018).

For one assay, the target named is T1, murine FAP (murine, UniProt P97321 27-761).
T1 construct: also called mouse FAP
The experiment in a line: SPR (Biacore), simultaneous binding.

Assay [1] concerns the target T2, human Fibroblast Activation Protein (FAP) (human, UniProt Q12884 27-760).
T2 construct: also called recombinant human FAP; Seprase
The experiment in a line: SPR (Biacore), simultaneous binding.

In assay [2] the target is T2, human Fibroblast Activation Protein …. Nature of the assay: Affinity human [nM], IgG format; method not stated.

T2 sequence (Q12884 27-760 limits assumed): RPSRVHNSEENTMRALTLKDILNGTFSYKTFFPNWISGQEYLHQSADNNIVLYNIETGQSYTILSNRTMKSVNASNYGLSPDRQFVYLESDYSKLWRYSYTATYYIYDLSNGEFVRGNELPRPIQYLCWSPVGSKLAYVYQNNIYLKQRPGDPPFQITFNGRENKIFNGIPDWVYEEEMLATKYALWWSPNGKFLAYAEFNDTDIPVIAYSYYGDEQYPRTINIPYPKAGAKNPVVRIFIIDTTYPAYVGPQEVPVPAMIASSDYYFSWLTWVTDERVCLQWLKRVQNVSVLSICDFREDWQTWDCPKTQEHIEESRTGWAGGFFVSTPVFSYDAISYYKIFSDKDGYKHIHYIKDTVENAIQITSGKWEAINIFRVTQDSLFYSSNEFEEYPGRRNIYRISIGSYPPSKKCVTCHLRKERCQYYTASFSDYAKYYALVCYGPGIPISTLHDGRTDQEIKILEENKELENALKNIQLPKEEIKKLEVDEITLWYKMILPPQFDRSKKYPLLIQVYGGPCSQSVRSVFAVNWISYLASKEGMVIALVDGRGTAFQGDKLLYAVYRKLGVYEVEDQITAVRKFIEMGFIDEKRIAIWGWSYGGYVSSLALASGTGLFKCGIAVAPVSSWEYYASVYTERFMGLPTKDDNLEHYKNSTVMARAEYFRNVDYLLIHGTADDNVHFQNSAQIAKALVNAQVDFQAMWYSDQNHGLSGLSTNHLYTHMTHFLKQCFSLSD
T1 sequence (P97321 27-761 limits assumed): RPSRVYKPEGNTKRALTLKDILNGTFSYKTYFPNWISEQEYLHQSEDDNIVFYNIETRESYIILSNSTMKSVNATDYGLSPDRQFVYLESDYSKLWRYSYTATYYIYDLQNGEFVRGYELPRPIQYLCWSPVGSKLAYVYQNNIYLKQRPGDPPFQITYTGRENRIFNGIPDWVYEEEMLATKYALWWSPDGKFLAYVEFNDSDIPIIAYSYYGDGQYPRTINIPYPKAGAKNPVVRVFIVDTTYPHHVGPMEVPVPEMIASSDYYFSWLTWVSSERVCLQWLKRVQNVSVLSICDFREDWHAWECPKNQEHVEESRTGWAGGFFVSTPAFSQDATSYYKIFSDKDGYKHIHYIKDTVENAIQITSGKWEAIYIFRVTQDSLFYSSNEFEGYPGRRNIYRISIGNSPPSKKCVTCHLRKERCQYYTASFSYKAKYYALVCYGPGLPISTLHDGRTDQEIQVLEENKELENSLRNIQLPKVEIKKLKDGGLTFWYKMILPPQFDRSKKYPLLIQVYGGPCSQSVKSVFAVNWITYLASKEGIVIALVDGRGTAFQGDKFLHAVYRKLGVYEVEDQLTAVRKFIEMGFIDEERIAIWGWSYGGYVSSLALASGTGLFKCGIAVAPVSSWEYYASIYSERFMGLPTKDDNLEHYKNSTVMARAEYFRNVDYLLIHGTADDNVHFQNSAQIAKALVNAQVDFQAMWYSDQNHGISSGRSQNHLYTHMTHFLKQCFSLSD

B1: DR5(5E11)-28H1 VHCL 2+2 (bispecific antibody, human IgG1, kappa)
heavy: not shown
light: EIVLTQSPGTLSLSPGERATLSCRASQSVSSSYLAWYQQKPGQAPRLLIYGASSRATGIPDRFSGSGSGTDFTLTISRLEPEDFAVYYCQQGTTHPITFGQGTKVEIKRTVAAPSVFIFPPSDEQLKSGTASVVCLLNNFYPREAKVQWKVDNALQSGNSQESVTEQDSKDSTYSLSSTLTLSKADYEKHKVYACEVTHQGLSSPVTKSFNRGEC
chain: EIVLTQSPGTLSLSPGERATLSCRASQSVSRSYLAWYQQKPGQAPRLLIIGASTRATGIPDRFSGSGSGTDFTLTISRLEPEDFAVYYCQQGQVIPPTFGQGTKVEIKSSASTKGPSVFPLAPSSKSTSGGTAALGCLVKDYFPEPVTVSWNSGALTSGVHTFPAVLQSSGLYSLSSVVTVPSSSLGTQTYICNVNHKPSNTKVDKKVEPKSCD
notes: 28H1 CrossFab domain (VHCL) fused to the C-terminus of the anti-DR5 (5E11) heavy chain by a (G4S)4 connector; also called DR5-FAP bispecific antibody; bispecific, tetravalent DR5-FAP CrossMab molecule
Regarding B1, the binding result (with murine FAP; in assay [1]) was “binds” throughout.

B2: DR5(5E11)-28H1 VHCL 2+2 P329GLALA (bispecific antibody, human IgG1, kappa, L234A L235A)
heavy: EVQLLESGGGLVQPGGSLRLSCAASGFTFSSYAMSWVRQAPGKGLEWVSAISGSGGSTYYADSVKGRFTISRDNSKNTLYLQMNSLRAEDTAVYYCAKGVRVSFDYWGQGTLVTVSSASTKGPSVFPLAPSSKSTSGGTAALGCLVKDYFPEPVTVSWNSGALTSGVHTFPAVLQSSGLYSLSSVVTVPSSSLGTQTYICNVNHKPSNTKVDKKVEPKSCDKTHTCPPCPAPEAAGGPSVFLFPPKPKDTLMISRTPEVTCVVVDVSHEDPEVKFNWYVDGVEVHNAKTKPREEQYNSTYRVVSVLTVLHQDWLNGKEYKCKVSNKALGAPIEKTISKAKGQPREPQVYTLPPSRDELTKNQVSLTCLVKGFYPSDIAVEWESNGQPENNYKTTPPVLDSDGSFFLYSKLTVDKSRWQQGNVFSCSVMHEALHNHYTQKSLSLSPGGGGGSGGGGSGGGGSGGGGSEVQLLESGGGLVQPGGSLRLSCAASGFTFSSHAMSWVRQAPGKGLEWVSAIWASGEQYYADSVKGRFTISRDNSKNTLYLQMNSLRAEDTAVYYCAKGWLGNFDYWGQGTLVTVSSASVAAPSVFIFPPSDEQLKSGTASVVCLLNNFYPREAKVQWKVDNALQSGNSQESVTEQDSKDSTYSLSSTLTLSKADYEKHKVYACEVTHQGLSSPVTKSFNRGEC
light: B1 light
chain: B1 chain
notes: As DR5(5E11)-28H1 VHCL 2+2, with removal of the C-terminal lysine and the P329G/LALA mutation in Fc; also called DR5-FAP bispecific antibody; bispecific, tetravalent DR5-FAP CrossMab molecule
B2: the binding result (in the assay with murine FAP; in assay [1]) was “binds” each time.

B3: FAP binder 28H1 (IgG) (antibody, V domains shown)
VH: EVQLLESGGGLVQPGGSLRLSCAASGFTFSSHAMSWVRQAPGKGLEWVSAIWASGEQYYADSVKGRFTISRDNSKNTLYLQMNSLRAEDTAVYYCAKGWLGNFDYWGQGTLVTVSS
VL: EIVLTQSPGTLSLSPGERATLSCRASQSVSRSYLAWYQQKPGQAPRLLIIGASTRATGIPDRFSGSGSGTDFTLTISRLEPEDFAVYYCQQGQVIPPTFGQGTKVEIK
notes: also called FAP(28H1)
In assay [2], B3 had a Kd of 2.6 nM.
